The target in assay [1] is SARS-CoV-2 RBD (Sino Biological 40592-V08H); Spike Receptor Binding Domain residues R319 - F541 His tagged (SARS-CoV-2) (UniProt P0DTC2). The experiment in a line: OECT sensor, PEDOT:PSS channel, nanobody on gate, target in buffer.
The target is the same in assay [2].
For assay [3] the target is unchanged. The source holds these as a separate data set.

Read-outs that look alike come from different tables or passages of the source.

In the case of “VHH72-8 aa-spyCatcher-3C cleavage site-His8”, the LOD in assay [1] was determined as 0.024 pM; in assay [2] it was 0.048 pM; in assay [3], 0.023 pM.

These data come from patent publication US20240280570A1.
